What was measured:
[1] = biological target: DBAIg (full recombinant mouse IgG2b antibody encoding the DBA/1J Ighv1-4 germline sequence) (mouse (DBA/1J) | mouse); experiment: SPR
[2] = biological target: M2139Ig (full recombinant mouse IgG2b antibody with the M2139 sequence) (mouse); experiment: SPR

Kd [1]: 274 nM
koff [1]: 0.00446 s⁻¹
kon [1]: 16300 M⁻¹ s⁻¹
Kd [2]: 38.8 nM
koff [2]: 0.00268 s⁻¹
kon [2]: 68900 M⁻¹ s⁻¹
Substance: triple-helical J1 peptide (synthetic peptide containing the J1 epitope of type II collagen)

From paper PMC3949579
